Laboratory results reported in PMC4698195 (Carbohydrate research, 2015).

Key:
[1] = molecular target: UDP-N-acetylglucosamine (UDP-GlcNAc) 2-epimerase (NmSacA) (Neisseria meningitidis, UniProt A0A0U1RGY0); type: biochemical
[2] = test system: CC(=O)N[C@@H]1[C@@H](OP(=O)(O)OP(=O)(O)OC[C@H]2O[C@@H](N3CCC(=O)NC3=O)[C@H](O)[C@@H]2O)O[C@H](CO)[C@@H](O)[C@@H]1O; experiment: purified protein
[3] = test system: CC(=O)N[C@@H]1[C@@H](OP(=O)(O)OP(=O)(O)OC[C@H]2O[C@@H](n3ccc(=O)[nH]c3=O)[C@H](O)[C@@H]2O)O[C@H](CO)[C@@H](O)[C@@H]1O; experiment: purified protein
[4] = test system: CC(=O)N[C@H]1[C@@H](OP(=O)(O)OP(=O)(O)OC[C@H]2O[C@@H](n3ccc(=O)[nH]c3=O)[C@H](O)[C@@H]2O)O[C@H](CO)[C@@H](O)[C@@H]1O; experiment: purified protein
[5] = test system: CCC(=O)N[C@@H]1[C@@H](OP(=O)(O)OP(=O)(O)OC[C@H]2O[C@@H](n3ccc(=O)[nH]c3=O)[C@H](O)[C@@H]2O)O[C@H](CO)[C@@H](O)[C@@H]1O; experiment: purified protein
[6] = test system: O=C(CO)N[C@@H]1[C@@H](OP(=O)(O)OP(=O)(O)OC[C@H]2O[C@@H](n3ccc(=O)[nH]c3=O)[C@H](O)[C@@H]2O)O[C@H](CO)[C@@H](O)[C@@H]1O; experiment: purified protein

Chain of UDP-N-acetylglucosamine (UDP-GlcNAc) 2-epimerase (NmSacA) (A0A0U1RGY0 whole entry): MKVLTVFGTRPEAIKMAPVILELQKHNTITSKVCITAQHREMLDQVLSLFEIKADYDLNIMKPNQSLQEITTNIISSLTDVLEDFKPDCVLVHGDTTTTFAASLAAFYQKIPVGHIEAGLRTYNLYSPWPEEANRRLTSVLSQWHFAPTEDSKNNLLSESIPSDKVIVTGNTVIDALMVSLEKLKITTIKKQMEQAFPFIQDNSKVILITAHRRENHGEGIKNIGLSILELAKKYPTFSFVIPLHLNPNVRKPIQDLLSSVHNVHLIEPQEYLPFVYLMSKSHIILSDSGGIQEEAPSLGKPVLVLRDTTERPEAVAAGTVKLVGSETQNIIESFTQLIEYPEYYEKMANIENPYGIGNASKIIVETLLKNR

Row | Compound | Ki [1] [mM] | Km [2] [mM] | kcat [2] [s⁻¹] | kcat/Km [2] [M⁻¹ s⁻¹] | Km [3] [mM] | kcat [3] [s⁻¹] | kcat/Km [3] [M⁻¹ s⁻¹] | Km [4] [mM] | kcat [4] [s⁻¹] | kcat/Km [4] [M⁻¹ s⁻¹] | Km [5] [mM] | kcat [5] [s⁻¹] | kcat/Km [5] [M⁻¹ s⁻¹] | Km [6] [mM] | kcat [6] [s⁻¹] | kcat/Km [6] [M⁻¹ s⁻¹]
1 | O=c1ccn([C@@H]2O[C@H](COP(=O)(O)OP(=O)(O)O)[C@@H](O)[C@H]2O)c(=O)[nH]1 [UDP] | 0.8 | – | – | – | – | – | – | – | – | – | – | – | – | – | – | –
2 | UDP-N-acetylglucosamine (UDP-GlcNAc) 2-epimerase (NmSacA) (Neisseria meningitidis Z2491) | – | 63 ± 7.0 | 6.7 ± 0.5 | 110 | 5.2 ± 1.1 | 52 ± 5 | 10000 | 3.6 ± 0.5 | 31 ± 2 | 8600 | 51 ± 5.0 | 7.8 ± 0.3 | 150 | 20 ± 1.9 | 4.2 ± 0.2 | 210
3 | CC(=O)NC1=CO[C@H](CO)[C@@H](O)[C@@H]1O [D, 2-acetamidoglucal] | 14 | – | – | – | – | – | – | – | – | – | – | – | – | – | – | –
